Measurements reported in the supplement of paper PMC7877785.
± gives the uncertainty stated by the source.

Assay: self-splicing fitness, log relative to wild type (ln ratio); higher = more splicing; Tetrahymena group I intron in knt gene, E. coli kanamycin selection, DiMSum; sequences stand for … in CUCUCU…GGAGGGAAAAGUUAUCAGGCAUGCACCUGGUAGCUAGUCUUUAAACCAAUAGAUUGCAUCGGUUUAAAAGGCAAGACCGUCAAAUUGCGGGAAAGGGGUCAACAGCCGUUCAGUACCAAGUCUCAGGGGAAACUUUGAGAUGGCCUUGCAAAGGGUAUGGUAAUAAGCUGACGGACAUGGUCCUAACCACGCAGCCAAGUCCUAAGUCAACAGAUCUUCUGUUGAUAUGGAUGCAGUUCACAGACUAAAUGUCGGUCGGGGAAGAUGUAUUCUUCUCAUAAGAUAUAGUCGGACCUCUCCUUAAUGGGAGCUAGCGGAUGAAGUGAUGCAACACUGGAGCCGCUGGGAACUAAUUUGUAUGCGAAAGUAUAUUGAUUAGUUUUGGAGUACUCGUGGUCG
How it was run: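 A randomised library covering all eight P1ex-region intron nucleotides was built with the intron in the knt kanamycin-resistance gene on pET-22b(+) and held in E. coli BL21(DE3). Cells were grown overnight at 37°C or 30°C on LB agar, with or without 25 μg/mL kanamycin, plus 100 μg/mL carbenicillin, 50 μM IPTG and 0.2% rhamnose, and pooled colonies were amplicon-sequenced on an Illumina HiSeq 2500. DiMSum fitness is the error-weighted combination of wild-type-normalised replicate fold changes, kanamycin versus none.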

Sequence | self-splicing fitness (ln) (30 °C) | self-splicing fitness (ln) (37 °C)
UAAAAGCAAUAUUACGCCCA | -0.0418 ± 0.15 | 0.358 ± 0.19
UAAAAGCAAUAUUACGCGCC | -1.76 ± 0.2 | -0.751 ± 0.24
UAAAAGCAAUAUUACGGAAA | -2.5 ± 0.23 | -1.72 ± 0.15
UAAAAGCAAUAUUACGGCAA | -0.166 ± 0.1 | -0.176 ± 0.1
UAAAAGCAAUAUUACGUAAG | -1.01 ± 0.079 | -0.764 ± 0.11
UAAAAGCAAUAUUACGUACU | -0.876 ± 0.073 | -0.401 ± 0.092
UAAAAGCAAUAUUACGUCCG | -0.59 ± 0.082 | 0.205 ± 0.1
UAAAAGCAAUAUUACGUUCA | -0.437 ± 0.083 | -0.259 ± 0.091
UAAAAGCAAUAUUACGUUGC | -3.72 ± 0.27 | -3.17 ± 0.4
UAAAAGCAAUAUUACGUUUG | -2.22 ± 0.1 | -0.909 ± 0.11
UAACAGCAAUAUUACGAAGC | -3.19 ± 0.19 | -2.3 ± 0.27
UAACAGCAAUAUUACGAAUC | -2.67 ± 0.18 | -2.66 ± 0.29
UAACAGCAAUAUUACGACUC | -0.882 ± 0.084 | -0.517 ± 0.11
UAACAGCAAUAUUACGAGAU | -4.15 ± 0.33 | -2.9 ± 0.2
UAACAGCAAUAUUACGAGUC | -3.74 ± 0.23 | -2.05 ± 0.22
UAACAGCAAUAUUACGAUAA | -1.1 ± 0.076 | -0.209 ± 0.08
UAACAGCAAUAUUACGAUCU | -1.04 ± 0.073 | 0.151 ± 0.099
UAACAGCAAUAUUACGCAGG | -2.5 ± 0.09 | -0.402 ± 0.08
UAACAGCAAUAUUACGCGCC | -1.47 ± 0.1 | -0.587 ± 0.13
UAACAGCAAUAUUACGCUAA | -1.93 ± 0.13 | -1.25 ± 0.12
UAACAGCAAUAUUACGCUGU | -3.79 ± 0.16 | -2.62 ± 0.19
UAACAGCAAUAUUACGGCAC | -2.47 ± 0.13 | -1.63 ± 0.14
UAACAGCAAUAUUACGGUAA | -2.07 ± 0.095 | -1.22 ± 0.081
UAACAGCAAUAUUACGUAAA | -2.6 ± 0.089 | -0.884 ± 0.084
UAACAGCAAUAUUACGUAUC | -3.56 ± 0.19 | -2.43 ± 0.15

Sequence | self-splicing fitness (ln) (30 °C) | self-splicing fitness (ln) (37 °C)
UAACAGCAAUAUUACGUAUG | -1.52 ± 0.058 | -0.164 ± 0.075
UAACAGCAAUAUUACGUCCU | -0.956 ± 0.085 | -0.192 ± 0.1
UAACAGCAAUAUUACGUCUA | -0.13 ± 0.049 | 0.144 ± 0.06
UAACAGCAAUAUUACGUCUU | -1.12 ± 0.052 | -0.0714 ± 0.06
UAACAGCAAUAUUACGUGUA | -1.6 ± 0.056 | -0.0928 ± 0.06
UAACAGCAAUAUUACGUUUG | -2.13 ± 0.079 | -0.759 ± 0.081
UAAGAGCAAUAUUACGAACG |  | -2.57 ± 0.41
UAAGAGCAAUAUUACGAAGG | -4.21 ± 0.34 | -1.81 ± 0.2
UAAGAGCAAUAUUACGAAUA | -3.27 ± 0.26 | -1.32 ± 0.19
UAAGAGCAAUAUUACGACAU | -3.866 ± 0.031 | -2.82 ± 0.043
UAAGAGCAAUAUUACGAGGG | -3.64 ± 0.14 | -2.53 ± 0.16
UAAGAGCAAUAUUACGAUAU | -3.22 ± 0.24 | -2.86 ± 0.28
UAAGAGCAAUAUUACGCAAG | -3.12 ± 0.44 | -1.51 ± 0.45
UAAGAGCAAUAUUACGCGCU | -3.17 ± 0.28 | -3.35 ± 0.39
UAAGAGCAAUAUUACGCGUA | -1.55 ± 0.29 | 0.00439 ± 0.15
UAAGAGCAAUAUUACGCUAG | -3.86 ± 0.26 | -1.94 ± 0.21
UAAGAGCAAUAUUACGCUAU | -3.95 ± 0.32 | -2.64 ± 0.24
UAAGAGCAAUAUUACGGAUU |  | -2.13 ± 0.48
UAAGAGCAAUAUUACGGGAA | -2.21 ± 0.3 | -1.77 ± 0.24
UAAGAGCAAUAUUACGGGUA | -2.57 ± 0.2 | -1.59 ± 0.17
UAAGAGCAAUAUUACGGUAA | -2.55 ± 0.21 | -3.19 ± 0.28
UAAGAGCAAUAUUACGGUUA | -1.12 ± 0.12 | -0.602 ± 0.1
UAAGAGCAAUAUUACGUAAC | -5.23 ± 0.45 | -1.44 ± 0.18
UAAGAGCAAUAUUACGUCAA | -3.41 ± 0.25 | -2.36 ± 0.18
UAAGAGCAAUAUUACGUCUC | -4.3 ± 0.34 | -2.31 ± 0.21

Sequence | self-splicing fitness (ln) (30 °C) | self-splicing fitness (ln) (37 °C)
UAAGAGCAAUAUUACGUGAA | -1.72 ± 0.17 | -1.74 ± 0.29
UAAGAGCAAUAUUACGUGAG | -1.37 ± 0.13 | -0.181 ± 0.23
UAAGAGCAAUAUUACGUGGU | -3.74 ± 0.24 | -2.57 ± 0.19
UAAGAGCAAUAUUACGUUAC |  | -2.7 ± 0.34
UAAGAGCAAUAUUACGUUUC | -3.76 ± 0.26 | -2.51 ± 0.39
UAAGAGCAAUAUUACGUUUG | -2.33 ± 0.096 | -1.07 ± 0.12
UAAUAGCAAUAUUACGACUC | -3.23 ± 0.25 | -1.03 ± 0.23
UAAUAGCAAUAUUACGACUU | -0.84 ± 0.1 | -0.376 ± 0.094
UAAUAGCAAUAUUACGAGCG | -1.02 ± 0.1 | -0.261 ± 0.15
UAAUAGCAAUAUUACGAGGG | -3.81 ± 0.39 | -1.73 ± 0.23
UAAUAGCAAUAUUACGAGGU | -3.06 ± 0.2 | -2.65 ± 0.26
UAAUAGCAAUAUUACGAUAA | -3.33 ± 0.2 | -1.78 ± 0.16
UAAUAGCAAUAUUACGAUGC | -3.45 ± 0.3 | 
UAAUAGCAAUAUUACGAUGU | -2.78 ± 0.18 | -2.48 ± 0.19
UAAUAGCAAUAUUACGCAGA |  | -0.288 ± 0.16
UAAUAGCAAUAUUACGCCGA | -1.01 ± 0.29 | -1.51 ± 0.44
UAAUAGCAAUAUUACGCUUU | -3.54 ± 0.44 | -1.5 ± 0.2
UAAUAGCAAUAUUACGGCCA | -0.34 ± 0.17 | 0.175 ± 0.18
UAAUAGCAAUAUUACGGCUU | -0.901 ± 0.096 | -0.115 ± 0.13
UAAUAGCAAUAUUACGGGGC | -3.12 ± 0.31 | -2.84 ± 0.31
UAAUAGCAAUAUUACGGGUC | -3.33 ± 0.3 | -1.58 ± 0.28
UAAUAGCAAUAUUACGUAAG | -2.47 ± 0.21 | -0.977 ± 0.15
UAAUAGCAAUAUUACGUACA | -1.05 ± 0.11 | -0.0465 ± 0.13
UAAUAGCAAUAUUACGUAUC |  | -2.68 ± 0.48
UAAUAGCAAUAUUACGUAUU | -4.09 ± 0.28 | -1.95 ± 0.16

Sequence | self-splicing fitness (ln) (30 °C) | self-splicing fitness (ln) (37 °C)
UAAUAGCAAUAUUACGUCAA | -2.33 ± 0.17 | -1.77 ± 0.15
UAAUAGCAAUAUUACGUGCG | 0.0578 ± 0.065 | -0.0439 ± 0.091
UAAUAGCAAUAUUACGUUGA | -2.67 ± 0.2 | -2.54 ± 0.18
UAAUAGCAAUAUUACGUUGU | -3.53 ± 0.18 | -1.98 ± 0.19
UACAAGCAAUAUUACGAAUG | -0.773 ± 0.065 | -0.319 ± 0.086
UACAAGCAAUAUUACGACAC | -3.15 ± 0.18 | -1.38 ± 0.15
UACAAGCAAUAUUACGACUC | -2.6 ± 0.14 | -1.2 ± 0.16
UACAAGCAAUAUUACGAUCC | -3.27 ± 0.27 | -1.78 ± 0.24
UACAAGCAAUAUUACGCAAU | -3.44 ± 0.21 | -2.47 ± 0.23
UACAAGCAAUAUUACGCAGC | -4 ± 0.42 | -2.63 ± 0.39
UACAAGCAAUAUUACGCCUU | -0.984 ± 0.091 | -1.04 ± 0.092
UACAAGCAAUAUUACGCGAG | -1.62 ± 0.11 | -0.536 ± 0.1
UACAAGCAAUAUUACGGAUU | -3.61 ± 0.15 | -0.762 ± 0.09
UACAAGCAAUAUUACGGCCG | -0.0815 ± 0.085 | 0.427 ± 0.13
UACAAGCAAUAUUACGGCGA | -0.244 ± 0.072 | 0.0939 ± 0.087
UACAAGCAAUAUUACGGUAG | -2.15 ± 0.089 | -1.43 ± 0.086
UACAAGCAAUAUUACGUACC | -2.83 ± 0.19 | -1.93 ± 0.19
UACAAGCAAUAUUACGUAUU | -4.29 ± 0.19 | -2.32 ± 0.13
UACAAGCAAUAUUACGUCAC | -3.37 ± 0.2 | -2.41 ± 0.17
UACAAGCAAUAUUACGUCGU | -3.83 ± 0.18 | -2.04 ± 0.17
UACAAGCAAUAUUACGUUCC | -3.65 ± 0.28 | -2.58 ± 0.25
UACCAGCAAUAUUACGACAC | -2.34 ± 0.13 | -1.16 ± 0.15
